# Results reported in IntAct's records for PubMed 20584941.
# B1: Protein RESTRICTED TEV MOVEMENT 3 (Arabidopsis thaliana (Mouse-ear cress)), D5K228 (parent)
# chain: MGKQFDKKITWTIKNFASLLSDLIYSDHFVVGGCKWHLRAYPKGYNNANSLSLFLGVAVPTSLPSGWRRHTKFRLTLVNQLSDKLSQSKLNELEQWFDEKTTNWGLSSMCPLNEIHAKDSGFLLNGELKIVVEIKVLETIGKLDVTEETSTITETVDVNGFQLLPSQAKSVSRMFAKHPELASDLRPKNPNLRTGYMSLLLSLIETLSQLPQQMSKDDLLDAYDALGSMRDAGFKLDWLEKKLYEVSEKKENEEASETGLQEMEEELKDMKQKCLEMEALVEKEKAKVSTAKAPISFDDIV
# partner: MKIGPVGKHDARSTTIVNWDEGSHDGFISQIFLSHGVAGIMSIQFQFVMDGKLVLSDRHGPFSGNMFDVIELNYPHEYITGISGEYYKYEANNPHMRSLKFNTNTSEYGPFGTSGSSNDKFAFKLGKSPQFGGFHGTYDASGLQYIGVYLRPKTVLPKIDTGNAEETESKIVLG
# Variants of: B1
# Conditions: with jal1_arath RTM1, Q9SE37
row,Variant,effect of a mutation on the interaction
1,E284K,decreasing interaction
